Source: patent US20250043302A1, “MUTATED HYDROXYPHENYLPYRUVATE DIOXYGENASE POLYPEPTIDE, AND CODING GENE AND USE THEREOF” (BEIJING DABEINONG BIOTECHNOLOGY CO., LTD., priority 2021, published 2025)

Legend:
Type in all cases: in vivo
soybean T1 plants [1] = assay: Isoxaflutole tolerance of transgenic soybean T1 plants; conditions: different concentrations
soybean T1 plants [2] = assay: Mesotrione tolerance of transgenic soybean T1 plants; conditions: different concentrations
[3] = tested on: Arabidopsis thaliana T1 plants; assay: Topramezone tolerance of transgenic Arabidopsis thaliana T1 plants (spray, bleached leaf area grade, damage score); conditions: 7 DAT, Table 4; for Classification and statistics of the grade of pesticide damage: Grade 0 / Classification and statistics of the grade of pesticide damage: Grade 1 / Classification and statistics of the grade of pesticide damage: Grade 2 / Classification and statistics of the grade of pesticide damage: Grade 3: number of plants; for Scores: pesticide damage score 0-100
Method in brief: (§1)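 T1 transformants selected by glufosinate; 18-day-old plants, with empty-vector and wild-type controls, sprayed with topramezone (25–200 g ai/ha), isoxaflutole (35–280 g ai/ha) or mesotrione (52.5–420 g ai/ha), water as 0×. Bleached leaf area fraction scored at 7 DAT as grades 0–3.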

[4] = tested on: Arabidopsis thaliana T1 plants; assay: Isoxaflutole tolerance of transgenic Arabidopsis thaliana T1 plants (spray, bleached leaf area grade, damage score); design: Scores (pesticide damage): scale not given here; conditions: spray, Arabidopsis thaliana T1 plants; for Classification and statistics of the grade of pesticide damage: Grade 0 (number of plants) / Classification and statistics of the grade of pesticide damage: Grade 1 (number of plants) / Classification and statistics of the grade of pesticide damage: Grade 2 (number of plants) / Classification and statistics of the grade of pesticide damage: Grade 3 (number of plants): 16 plants
Method in brief: as §1

[5] = tested on: Arabidopsis thaliana T1 plants; assay: Mesotrione tolerance of transgenic Arabidopsis thaliana T1 plants (spray, bleached leaf area grade, damage score); design: Scores: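 damage score 0-100 computed as Σ(N×S)/(T×M)×100 over grades 0-3 with higher meaning more damage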; conditions: Arabidopsis thaliana T1 plants; for Grade 0 (classification and statistics of the grade of pesticide damage; number of plants) / Grade 1 (classification and statistics of the grade of pesticide damage; number of plants) / Grade 2 (classification and statistics of the grade of pesticide damage; number of plants) / Grade 3 (classification and statistics of the grade of pesticide damage; number of plants): 16 plants
Method in brief: as §1

soybean T1 plants [6] = assay: Topramezone tolerance of transgenic soybean T1 plants; conditions: different concentrations
Description: T1 transformants were initially selected from the untransformed seeds using a glufosinate selection scheme. […] The degree of damage caused by the herbicide was measured for each plant according to the proportion of bleached leaf area (the proportion of bleached leaf area=bleached leaf area/total leaf area×100%) 7 days after spraying (7 DAT): the case where there is basically no bleached phenotype is defined as grade 0, the case where the proportion of bleached leaf area is less than 50% is defined as grade 1, the case where the proportion of bleached leaf area is more than 50% is defined as grade 2, and the case where the proportion of bleached leaf area is 100% grade is defined as grade 3.
The soybean T1 plants into which the SbHPPD-02 nucleotide sequence was introduced, soybean T1 plants into which the SbHPPDm-F372A-02 nucleotide sequence was introduced, soybean T1 plants into which the SbHPPDm-F383W-02 nucleotide sequence was introduced, soybean T1 plants into which the SbHPPDm-F372A-F383W-02 nucleotide sequence was introduced, soybean T1 plants into which the control vector DBN11726N nucleotide sequence was introduced, and wild-type soybean plants (V3-V4 at seedling stage) were sprayed with topramezone at three different concentrations (i.e., 25 g ai/ha (one-fold field concentration, 1×). […] According to the method in point 6 of Example 1, after 7 days of spraying (7 DAT), the damage degree of each plant by the herbicide was statistically analyzed, and the scoring and resistance evaluation were carried out accordingly. […]

[7] = isoxaflutole 35 g ai/ha (0.5x field concentration)
[8] = isoxaflutole 70 g ai/ha (1x field concentration)

B1: SbHPPDm-F383W-02: nucleotide sequence encoding Sorghum bicolor HPPD with F383W; vector DBN11760 (nucleic acid)
DNA: ATGCCGCCCACTCCAACAACTGCTGCTGCGACGGGAGCAGCTGTCGCCGCTGCTTCTGCTGAGCAGGCTGCCTTCAGGCTCGTCGGGCACAGAAATTTTGTTCGTGTAAATCCAAGGAGTGATAGGTTCCACACCTTGGCTTTTCACCACGTGGAGTTGTGGTGTGCTGATGCAGCCTCGGCAGCGGGGCGCTTCTCGTTTGGTCTCGGTGCTCCGCTCGCCGCAAGATCTGATCTTAGCACTGGAAACACAGCGCATGCCTCCCTGCTCCTGCGCTCTGGCGCGCTGGCGTTCCTCTTCACGGCGCCATATGCTCACGGCGCCGACGCCGCCACCGCGTCATTGCCGTCTTTTAGTGCAGCCGAAGCAAGAAGATTTGCAGCAGACCACGGCCTCGCCGTAAGGGCCGTGGCCTTACGTGTCGCCGATGCCGAAGATGCTTTCCGCGCCTCTGTAGCAGCTGGAGCAAGGCCAGCATTTGAACCTGTTGAATTGGGGTTAGGATTCCGTCTTGCAGAAGTTGAGCTTTATGGCGACGTTGTTTTGAGATACGTTTCATATCCTGATGACGCTGACGCTAGCTTCTTGCCTGGTTTTGTGGGGGTGACATCACCTGGGGCAGCAGATTATGGTCTCAGGCGGTTTGATCATATTGTTGGAAACGTTCCTGAACTCGCGCCGGCGGCAGCCTACTTCGCCGGTTTCACTGGGTTTCATGAATTTGCTGAATTCACAGCCGAGGATGTCGGCACCACCGAGAGTGGACTGAACTCCATGGTGCTGGCCAACAATGCAGAGAATGTCCTTCTTCCCTTGAATGAACCAGTTCATGGAACAAAAAGGCGTTCCCAAATACAAACATACCTCGACCATCATGGTGGACCAGGCGTTCAGCATATGGCTCTCGCTAGTGACGATGTTCTACGAACCCTGCGAGAGATGCAGGCGCGGTCTGCAATGGGAGGATTTGAGTTCATGGCACCTCCTGCCCCTGAATATTATGATGGTGTTCGGAGAAGGGCAGGTGATGTGCTAACTGAAGCTCAAATCAAGGAGTGCCAGGAGCTTGGCGTGCTGGTCGATCGGGATGATCAAGGTGTGCTTCTGCAGATTTTTACTAAACCAGTGGGTGACCGCCCCACGCTGTGGCTAGAGATCATCCAGAGAATAGGGTGCATGGAGAAGGACGAAAAAGGACAAGAGTACCAGAAGGGAGGTTGTGGCGGCTTTGGAAAAGGGAACTTCTCCCAATTATTCAAGTCAATTGAAGACTATGAAAAGAGTTTGGAGGCTAAGCAAGCTGCAGCCGCCCAGGGCAGCTGA
modifications: SbHPPDm-F383W-02 Nucleotide Sequence
notes: vector DBN11760
Q: With B1 as the molecule, how does the “tolerance to HPPD-inhibitor herbicides (in words): isoxaflutole” value (soybean T1 plants [1]) read?
A: different degrees of tolerance

Q: And the “tolerance to HPPD-inhibitor herbicides (in words): mesotrione” value (soybean T1 plants [2])?
A: different degrees of tolerance

Q: And the “Classification and statistics of the grade of pesticide damage: Grade 0” value ([3]; topramezone 25 g ai/ha (1×))?
A: 7

Q: What about the “Classification and statistics of the grade of pesticide damage: Grade 1” value ([3]; topramezone 25 g ai/ha (1×)) of the same molecule?
A: 6

Q: And the “Classification and statistics of the grade of pesticide damage: Grade 2” value ([3]; topramezone 25 g ai/ha (1×))?
A: 3

Q: What about the “Classification and statistics of the grade of pesticide damage: Grade 3” value ([3]; topramezone 25 g ai/ha (1×)) of the same molecule?
A: 0

Q: And the “Classification and statistics of the grade of pesticide damage: Grade 0” value ([3]; topramezone 100 g ai/ha (4×))?
A: 0

Q: What about the “Classification and statistics of the grade of pesticide damage: Grade 1” value ([3]; topramezone 100 g ai/ha (4×)) of the same molecule?
A: 0

Q: What about the “Classification and statistics of the grade of pesticide damage: Grade 2” value ([3]; topramezone 100 g ai/ha (4×)) of the same molecule?
A: 0

Q: And the “Classification and statistics of the grade of pesticide damage: Grade 3” value ([3]; topramezone 100 g ai/ha (4×))?
A: 16

Q: And the Scores ([3]; topramezone 25 g ai/ha (1×))?
A: 25

Q: What about the Scores ([3]; topramezone 100 g ai/ha (4×)) of the same molecule?
A: 100

Q: And the Resistance evaluation ([3]; topramezone 25 g ai/ha (1×))?
A: moderately

Q: And the Resistance evaluation ([3]; topramezone 100 g ai/ha (4×))?
A: non-resistant (non-resistant plants (scores 68-100))

Q: What about the Resistance evaluation [4, 7] of the same molecule?
A: Poorly

Q: What about the “Scores (pesticide damage)” value [4, 7] of the same molecule?
A: 65

Q: And the “Classification and statistics of the grade of pesticide damage: Grade 0 (number of plants)” value [4, 7]?
A: 0

Q: And the “Classification and statistics of the grade of pesticide damage: Grade 1 (number of plants)” value [4, 7]?
A: 1

Q: And the “Classification and statistics of the grade of pesticide damage: Grade 2 (number of plants)” value [4, 7]?
A: 15

Q: And the “Classification and statistics of the grade of pesticide damage: Grade 3 (number of plants)” value [4, 7]?
A: 0

Q: And the Resistance evaluation [4, 8]?
A: Non-resistant

Q: And the “Scores (pesticide damage)” value [4, 8]?
A: 100

Q: What about the “Classification and statistics of the grade of pesticide damage: Grade 0 (number of plants)” value [4, 8] of the same molecule?
A: 0

Q: What about the “Classification and statistics of the grade of pesticide damage: Grade 1 (number of plants)” value [4, 8] of the same molecule?
A: 0

Q: What about the “Classification and statistics of the grade of pesticide damage: Grade 2 (number of plants)” value [4, 8] of the same molecule?
A: 0

Q: And the “Classification and statistics of the grade of pesticide damage: Grade 3 (number of plants)” value [4, 8]?
A: 16

Q: What about the Resistance evaluation ([5]; mesotrione 52.5 g ai/ha) of the same molecule?
A: Non-resistant

Q: What about the Scores ([5]; mesotrione 52.5 g ai/ha) of the same molecule?
A: 69

Q: What about the “Grade 0 (classification and statistics of the grade of pesticide damage; number of plants)” value ([5]; mesotrione 52.5 g ai/ha) of the same molecule?
A: 0

Q: And the “Grade 1 (classification and statistics of the grade of pesticide damage; number of plants)” value ([5]; mesotrione 52.5 g ai/ha)?
A: 5

Q: And the “Grade 2 (classification and statistics of the grade of pesticide damage; number of plants)” value ([5]; mesotrione 52.5 g ai/ha)?
A: 5

Q: And the “Grade 3 (classification and statistics of the grade of pesticide damage; number of plants)” value ([5]; mesotrione 52.5 g ai/ha)?
A: 6

Q: What about the Resistance evaluation ([5]; mesotrione 105 g ai/ha) of the same molecule?
A: Non-resistant

Q: What about the Scores ([5]; mesotrione 105 g ai/ha) of the same molecule?
A: 100

Q: What about the “Grade 0 (classification and statistics of the grade of pesticide damage; number of plants)” value ([5]; mesotrione 105 g ai/ha) of the same molecule?
A: 0

Q: And the “Grade 1 (classification and statistics of the grade of pesticide damage; number of plants)” value ([5]; mesotrione 105 g ai/ha)?
A: 0

Q: What about the “Grade 2 (classification and statistics of the grade of pesticide damage; number of plants)” value ([5]; mesotrione 105 g ai/ha) of the same molecule?
A: 0

Q: What about the “Grade 3 (classification and statistics of the grade of pesticide damage; number of plants)” value ([5]; mesotrione 105 g ai/ha) of the same molecule?
A: 16

Q: And the “tolerance to HPPD-inhibitor herbicides (in words): topramezone” value (soybean T1 plants [6])?
A: different degrees of tolerance
